Laboratory results as given in PMC1352370.
Values belong to the substance of their own block, whether it stands above or below them.

Assays:
APEG-1 (Homo sapiens) = APEG-1 (Homo sapiens) (UniProt Q15772); experiment: analytical ultracentrifugation (sedimentation equilibrium)
[1] = biological target: Aortic Preferentially Expressed Protein-1 (APEG-1), full-length construct (2-113) (human); experiment: AUC; sedimentation equilibrium, dimer to monomers; 15 mM Tris-HCl pH 7.4, 0.1 M NaCl, 0.1 mM EDTA, 0.2% NaN3, 10°C; Kd from concentration-dependent Mw
[2] = biological target: ΔAPEG-1, truncated Aortic Preferentially Expressed Protein-1 (15-113) (human); experiment: AUC; sedimentation equilibrium, dimer to monomers; 0 mM NaCl (salt series)
[3] = biological target: ΔAPEG-1, truncated Aortic Preferentially Expressed Protein-1 (15-113) (human); experiment: AUC; sedimentation equilibrium, dimer to monomers; 15 mM Tris-HCl pH 7.4, 0.1 M NaCl, 0.1 mM EDTA, 0.2% NaN3, 10°C; Kd from concentration-dependent Mw

Chain of Aortic Preferentially Expressed Protein-1 (APEG-1), full-length construct (2-113) (natural protein) (Q15772 2-113): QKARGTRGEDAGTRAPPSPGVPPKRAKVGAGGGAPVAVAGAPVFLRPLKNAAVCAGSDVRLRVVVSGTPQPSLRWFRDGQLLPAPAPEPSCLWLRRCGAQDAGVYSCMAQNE

- Kd (APEG-1 (Homo sapiens)): 2 µM
Substance: APEG-1, Q15772

- Kd [1]: 20 µM
- stoichiometry N [1]: 2
Substance: Aortic Preferentially Expressed Protein-1 (APEG-1), full-length construct (2-113) (natural protein)

- Kd [2]: 2 to 200 µM
- Kd [3]: 20 µM
- stoichiometry N [3]: 2
Substance: ΔAPEG-1, truncated Aortic Preferentially Expressed Protein-1 (15-113) (domain or fragment)
